Our source for the co-IP of Tdrd1 as percent of full-length Mili, binding as percent of the wildtype level and fold weaker interaction than with Tdrd1 values is publication PMC2704239.

Assay in all cases: co-IP
Assay [1] deals with FLAG-tagged Mili N-terminal domain (mouse).
Assay [2] concerns the target FLAG-tagged Mili region containing the PAZ, Mid, and Piwi domains (mouse).
Assay [3] concerns the target T1, myc-tagged Tdrd2, Q80VL1.
T1 chain: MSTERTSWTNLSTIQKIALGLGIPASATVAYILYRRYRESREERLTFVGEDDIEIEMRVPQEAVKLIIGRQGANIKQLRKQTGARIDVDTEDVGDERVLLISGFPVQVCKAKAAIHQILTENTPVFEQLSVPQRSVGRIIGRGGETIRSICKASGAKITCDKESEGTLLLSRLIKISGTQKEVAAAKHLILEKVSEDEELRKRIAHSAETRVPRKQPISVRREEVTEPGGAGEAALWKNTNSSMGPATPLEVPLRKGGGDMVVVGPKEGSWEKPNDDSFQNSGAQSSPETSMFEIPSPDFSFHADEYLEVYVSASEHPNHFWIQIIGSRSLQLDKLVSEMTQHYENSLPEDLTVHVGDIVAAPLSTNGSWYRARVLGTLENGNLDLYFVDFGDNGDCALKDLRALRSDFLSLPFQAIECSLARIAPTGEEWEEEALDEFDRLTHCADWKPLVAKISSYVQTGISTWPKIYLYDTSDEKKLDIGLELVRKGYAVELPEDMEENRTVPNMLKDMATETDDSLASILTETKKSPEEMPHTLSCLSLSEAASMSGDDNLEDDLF
The settings on record: remark: other sources report otherwise.

B1: myc-tagged Tdrd1 (natural protein)
chain: MMPRNNLEASTCKMAEPFNFEKKESKPPPQDPLRSPVAQHNHPTFRLKSPENGNTKNNFLLCEQNKQYLASQEDSSVVSSNPAVVNGEVGGSKGDRKPPPTGNPVSPLSLGNSSPPNQVKTKPSSNVTPEKSKKSHKLFENALSVNNPALFNSLGPPLRSTTCHRCGLFGSLRCSQCKQTYYCSTACQRRDWSSHSTICRPVQQSLNKLEDNKSPFETKAIEVKSEVDCPPGVTKEITAGAERVMFSDLRSLQLKKTMEIKGTVTEFKHPSNFYIQLYSSEVLENMNQLSTSLKETYANVVPEDGYLPVKGEVCVAKYTVDQTWNRAIVQAVDVLQRKAHVLYIDYGNEEMIPIDSVHPLSRGLDLFPPSAIKCCVSGVIPTAGEWSEGCVAAVKALLFEQFCSVKVMDILEEEVLTCAVDLVLQSSGKQLDHVLVEMGYGVKPGEQSSTEQSVDHSALEDVGRVTVESKIVTDRNALIPKVLTLNVGDEFCGVVAHIQTPEDFFCQQLQSGHKLAELQESLSEYCGHVIPRSDFYPTIGDVCCAQFSEDDQWYRASVLAYASEESVLVGYVDYGNFEILSLKRLCPIIPKLLDLPMQALNCVLAGVKPSLGIWTPEAVCVMKEMVQNRMVTVRVVGMLGTRALVELIDKSVAPHVSASKALIDSGFAIKEKDVADKGSSMHTASVPLAIEGPAEALEWTWVEFTVDETVDVVVCMMYSPGEFYCHFLKDDALEKLDDLNQSLADYCAQKPPNGFKAEIGRPCCAFFSGDGNWYRALVKEILPSGNVKVHFVDYGNVEEVTTDQLQAILPQFLLLPFQGMQCWLVDIQPPNKHWTKEATARFQACVVGLKLQARVVEITANGVGVELTDLSTPYPKIISDVLIREQLVLRCGSPQDSLMSRPANQHKQIDSHRVQASPSAEQWKTMELPVNKTIAANVLEIISPALFYAIPSEMSENQEKLCVLAAELLEHCNAQKGQPAYRPRTGDACCAKYTNDDFWYRAIVLETSESDVKVLYADYGNIETLPLSRVQPIPASHLELPFQIIRCSLEGPMELNGSCSQLVMELLRNAMLNQSVVLSVKAISKNVHAVSVEKCSENGMINIAENLVMCGLAENLTSKRKSASTKEIPHSRDCCCTELQKQIEKHEQILLFLLNNPTNQSKFTEMKKLLRS
B1 gave a co-IP of Tdrd1 as percent of full-length Mili in assay [1] of 76%. The molecule further had a binding as percent of the wildtype level in assay [2] of 11%.

B2: FLAG-tagged Mili, Q8CDG1 1-971 (natural protein)
chain: MDPVRPLFRGPTPVHPSQCVRMPGCWPQAPRPLEPAWGRAGPAGRGLVFRKPEDSSPPLQPVQKDSVGLVSMFRGMGLDTAFRPPSKREVPPLGRGVLGRGLSANMVRKDREEPRSSLPDPSVLAAGDSKLAEASVGWSRMLGRGSSEVSLLPLGRAASSIGRGMDKPPSAFGLTARDPPRLPQPPALSPTSLHSADPPPVLTMERKEKELLVKQGSKGTPQSLGLNLIKIQCHNEAVYQYHVTFSPSVECKSMRFGMLKDHQSVTGNVTAFDGSILYLPVKLQQVVELKSQRKTDDAEISIKIQLTKILEPCSDLCIPFYNVVFRRVMKLLDMKLVGRNFYDPTSAMVLQQHRLQIWPGYAASIRRTDGGLFLLADVSHKVIRNDSVLDVMHAIYQQNKEHFQDECSKLLVGSIVITRYNNRTYRIDDVDWNKTPKDSFVMSDGKEITFLEYYSKNYGITVKEDDQPLLIHRPSERQNNHGMLLKGEILLLPELSFMTGIPEKMKKDFRAMKDLTQQINLSPKQHHGALECLLQRISQNETASNELTRWGLSLHKDVHKIEGRLLPMERINLRNTSFVTSEDLNWVKEVTRDASILTIPMHFWALFYPKRAMDQARELVNMLEKIAGPIGMRISPPAWVELKDDRIETYIRTIQSLLGVEGKIQMVVCIIMGTRDDLYGAIKKLCCVQSPVPSQVINVRTIGQPTRLRSVAQKILLQMNCKLGGELWGVDIPLKQLMVIGMDVYHDPSRGMRSVVGFVASINLTLTKWYSRVVFQMPHQEIVDSLKLCLVGSLKKYYEVNHCLPEKIVVYRDGVSDGQLKTVANYEIPQLQKCFEAFDNYHPKMVVFVVQKKISTNLYLAAPDHFVTPSPGTVVDHTITSCEWVDFYLLAHHVRQGCGIPTHYICVLNTANLSPDHMQRLTFKLCHMYWNWPGTIRVPAPCKYAHKLAFLSGQILHHEPAIQLCGNLFFL
As to B2, the fold weaker interaction than with Tdrd1 in assay [3] came out at 20 fold.
